Measurements as given in the Human Domainome abundance scans (Beltran et al. 2025).

B1: CD2-associated protein, residues 271 to 331; numbered along this chain, Q9Y5K6 (parent)
chain: KEYCRTLFAYEGTNEDELTFKEGEIIHLISKETGEAGWWRGELNGKEGVFPDNFAVQINEL

Variants of: B1
Assay: abundance fitness (aPCA) (normalised: wild type 0, dead -1); higher = more abundant; growth selection in yeast, the domain comes from the species named
Conditions: Homo sapiens

Abundance fitness: each site, then its substitutions
E2: N 0.002 | H 0.049 | G -0.078 | R -0.245 | T -0.121 | V -0.222 | D 0.039 | P -0.306 | A -0.022 | L -0.136 | Q -0.05 | F -0.351 | K -0.084 | M 0.073 | S -0.128 | W -0.525
T6: P -0.605 | A -0.014 | K -0.607 | M -0.474 | D -0.963 | V -0.844 | R -0.682 | N -0.926 | Y -0.621 | I -0.5 | L -0.88 | C -0.614 | F -0.889 | W -1.15 | E -0.698 | Q -0.68 | S -0.103 | G -0.528 | H -0.695
Y3: D -0.555 | L -0.131 | T -0.608 | V -0.537 | H -0.278 | S -0.26 | E -0.567 | N -0.292 | A -0.369 | Q -0.775 | P -0.75 | F 0.001 | W -0.661 | G -0.611 | M -0.372 | K -0.748
L7: V -0.088 | P -1.01 | I -0.021 | K -0.174 | C -0.336 | F -0.741 | M -0.113 | A -0.275 | W -0.539 | S -0.107 | D -0.426 | Y -0.762 | R -0.276 | H -0.674 | T -0.017 | E -0.457 | G -0.57
G12: E -0.434 | F -0.687 | A 0.036 | C -0.329 | D -0.794
R5: Q -0.37 | I -0.527 | V -0.439 | G -0.868 | H -0.461 | D -0.764 | F -0.487 | N -0.601 | P -0.978 | S -0.49 | E -0.154 | A -0.426 | L -0.383 | T -0.34 | W -0.689 | K 0.182
E11: I -0.164 | V -0.157 | K -0.095 | L -0.377 | G -0.384 | A -0.234 | M -0.254 | Y -0.19 | H -0.151 | P -0.745 | S -0.237 | F -0.151 | Q -0.4 | C -0.256 | D -0.122 | R -0.263 | T -0.216 | W -0.261
Y10: L -0.744 | E -0.592 | N -0.831 | S -0.598 | C -0.659 | F -0.182 | A -0.686 | T -0.864 | G -0.544 | I -0.846 | K -0.167 | W -0.209 | Q -0.439 | V -0.567 | H -0.373 | P -0.79
A9: H -0.076 | K -0.077 | C -0.129 | T -0.268 | I -0.542 | D -0.011 | W -0.448 | R -0.144 | N -0.013 | E -0.09 | P -0.084 | F -0.469 | S 0.029 | Q -0.096 | L -0.599 | G -0.283 | Y -0.309 | M -0.291
F8: G 0.028 | K 0.128 | P -0.432 | R 0.12 | Q 0.074 | V 0.004 | D -0.311 | W -0.139 | H -0.109 | Y -0.148 | A 0.014 | L -0.064
C4: V -0.354 | L -0.046 | F -0.007 | G -0.707 | D -1.04 | K -0.64 | H -1.07 | W -0.301 | I -0.113 | M -0.23 | Q -0.9 | S -0.791 | T -0.714 | A -0.591
